The record followed here is patent publication US20150313990A1.

Test [1] concerns the target BaL Pro 2.0 (HIV-1 BaL gp160 with a proline inserted between Tyr 173 and Ala 174) on HeLa cells (HIV-1 BaL).
Test [2] addresses wild-type full-length HIV-1 BaL envelope glycoprotein gp160 expressed on the surface of HeLa cells (untreated) (HIV-1 BaL).
The target of test [3] is native HIV-1 BaL envelope trimers on the surface of persistently infected human T cells (PM1) (HIV-1 BaL). Briefly: flow cytometry on infected PM1 cells pre-incubated with sCD4 5 µg/ml (competitor, two-domain by the panel header) before PG9.
Test [4] shares this target.
Test [5] has the same target. As to the kind of experiment: flow cytometry on infected PM1 cells pre-incubated with control buffer, PE anti-human IgG; panel header 'PM1 HT-pg9 25'. (In general: A flow cytometer gives signals particle by particle.)

As to NC human, the Geom. Mean, Comp-PE-A was determined as 129 in test [1], 152 in the test with ΔV1V2 and 139 in test [2].
antibody 48d (CD4-induced epitope): the results for the Geom. Mean, Comp-PE-A (in test [1]; with ΔV1V2; in test [2]) were 244, 240 and 484, respectively.
As for “monoclonal antibody PG9 (directed to the α-helix-containing region of V2; trimer-preferring)”, the change of the MFI with sCD4 in test [3] is -58%. The MFI in test [4] is 2220. For the same substance, in test [5], the Mean fluorescence intensity (MFI) was 5210.
